This note sets out measurements from patent publication US20250101446A1, “METHOD FOR GENETIC TRANSFORMATION OF PLANT ORGANELLE GENOME AND USES THEREOF” (Solar Grants Biotechnology Inc., priority 2022, published 2025).

The assay relates to IA-stimulated PBMCs. The assay can be described thus: Counts of significant modulations over all treatments of IA-stimulated PBMCs (LPS or PHA). It is filed as cell-based, human. How it is done: The bioactivity of our plantakines IL-37b and IL-38 was assessed by monitoring the secretion of 11 cytokines, generally regarded as inflammatory markers, from PBMCs stimulated with an IA. Freshly isolated human PBMCs were subjected to various treatments-combinations of the IAs with the plantakines at different concentrations. Two different model IAs were used, either the bacterial lipopolysaccharides (LPS) or a lectin from Phaseolus vulgaris (phytohaemagglutinin, PHA); each of the IAs was applied onto cells separately, each IA was applied at two concentrations: LPS at 150 and 300 μg/mL; PHA at 5 and 10 μg/mL. Each IA at each concentration was applied in combination with one of the two plantakines, each of them at three different concentrations: 1, 10 and 100 ng/ml of the monomeric forms present in the purified extracts. Also included were treatments comprised of either IA at their lower concentrations, in combination with both plantakines at 10 ng/ml concentration in order to assess possible synergistic effects. Cells with only IAs applied represented the reference (positive controls for each concentration), cells without any treatment represented the basal level (negative control). The levels of eleven different pro-inflammatory cytokines secreted into the medium from the PBMCs-GM-SCF, IFNγ. TNFα, IL-1α, IL-1β, IL-6, IL-8, IL-22, IL12, IL-17 and IL-10 were compared between the treatments and the controls. We applied Generalized Estimating Equation (GEE) model for the statistical data analysis. This statistical approach allows for nested observations and was used to test the effects of the plantakines IL-37b and IL-38 and their dosage in the context of IA-stimulated PBMCs inflammatory responses. […]
Non-linear logarithm transformation was performed to address non-normality of distribution of Luminex-derived numeric data. […] Separate analyses were conducted for each of the 11 monitored cytokines and each inflammatory agent/concentration combination. […]

[1] abbreviates: separate applications, either IA, all concentrations.

B1: plant-produced recombinant human IL-38, mature form C2-W152 with C-terminal 7xHIS tag (ligand)
chain: CSLPMARYYIIKYADQKALYTRDGQLLVGDPVADNCCAEKICILPNRGLARTKVPIFLGIQGGSRCLACVETEEGPSLQLEDVNIEELYKGGEEATRFTFFQSSSGSAFRLEAAAWPGWFLCGPAEPQQPVQLTKESEPSARTKFYFEQSWHHHHHHH
notes: range 2-152; also called rhIL-38; plantakine IL-38
In the case of B1, the “attenuated rather than increased secretion of inflammatory cytokines, frequency ratio” value (all significant treatments) came to 1.7 times. Also, under setting [1], the “number of treatments in which secretion of inflammatory cytokines was increased” value is recorded as 22 treatments and the “number of treatments in which secretion of inflammatory cytokines was suppressed” value was determined as 30 treatments.
